Key:
[1] = target: T1, MMP-2 (Homo sapiens, UniProt P08253); test: Enzymatic digest of polymer by MMP-2, SDS-PAGE; type: biochemical; details: 1 mg/ml polymer, 10 nM and 40 nM MMP-2, 2-48 hours, room temperature
T1 sequence (P08253 110-660): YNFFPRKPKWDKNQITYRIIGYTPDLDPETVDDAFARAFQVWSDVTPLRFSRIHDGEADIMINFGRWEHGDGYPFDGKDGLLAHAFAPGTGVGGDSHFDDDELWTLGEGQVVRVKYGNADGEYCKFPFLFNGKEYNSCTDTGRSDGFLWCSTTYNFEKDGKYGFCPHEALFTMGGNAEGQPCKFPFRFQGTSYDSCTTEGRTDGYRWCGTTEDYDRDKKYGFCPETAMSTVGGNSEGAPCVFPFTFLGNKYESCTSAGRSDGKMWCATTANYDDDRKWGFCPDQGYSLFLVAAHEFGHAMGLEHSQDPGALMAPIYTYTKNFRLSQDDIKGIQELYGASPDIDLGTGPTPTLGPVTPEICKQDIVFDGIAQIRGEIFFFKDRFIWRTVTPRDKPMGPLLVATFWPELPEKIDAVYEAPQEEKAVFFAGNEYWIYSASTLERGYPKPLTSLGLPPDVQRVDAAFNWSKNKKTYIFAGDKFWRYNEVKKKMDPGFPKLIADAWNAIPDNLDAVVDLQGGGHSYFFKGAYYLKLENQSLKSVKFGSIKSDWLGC
Experimental: This buffer recipe is sourced from the Molecular Probes EnzChek Gelatinase/Collagenase Assay Kit (Invitrogen, Carlsbad, Calif.), which was used to confirm the activity of MMP-2 and MMP-9 prior to use. 2× Laemmli Buffer was supplemented with 5% β-mercaptoethanol and added 1:1 by volume to the polymer solutions, which were then placed in a PCR thermal cycler and heated to 95° C. for five minutes to denature the protein. 25 μl of each sample was added to 4-15% Bis-Tris precast PAGE gel and electrophoresis was performed at 200V until the dye front reached the bottom of the gel, approximately 30 minutes. Kaleidoscope protein standard was used as a molecular weight marker. Following electrophoresis, gels were stained with GelCode Blue (colloidal Coomassie formulation) following manufacturer's instructions for staining and destaining.
100 μl samples of each polymer were digested with a final concentration of 10 nM and 40 nM MMP-2 or MMP-9. MMP samples were incubated at room temperature for 2, 4, 12, 24, 36, and 48 hours and samples were run on PAGE gels and stained with GelCode Blue to visualize band patterns corresponding to protein degradation.
Additionally, this digestion is dependent on both time of exposure and concentration of MMP.

[2] = 12 week subchronic toxicity study; type: in vivo, CD-1 immunocompetent mice
Experimental: Mice were anesthetized and maintained under anesthesia with 3% isofluorane in oxygen. After shaving and cleaning the injection site with 60% isopropanol, mice were subcutaneously injected in the right flank with 50 μl of solution using a 250 μl Hamilton syringe with a 26G needle. […] The injection site was gently clamped for 10 seconds to prevent leakage, after which mice were returned to their cages. For consistency, the day of viral injection was defined as day 0.
For treatment groups, a suspension of 1 mg GCV (Sigma Aldrich, St. Louis, Mo.) per ml of 0.9% physiological saline was prepared and sterilized through a 0.22 μm filter. Each day, animal weights were recorded, injection sites cleaned with 60% isopropanol, and mice injected i.p. with 1 mg/ml GCV suspension through a 26G needle sufficient for a total dose of 25 mg/kg body weight. Average dosing volume for these studies was approximately 0.6 ml. Mice were injected daily for the first four weeks of the 12 week recovery study, and for the entirety of the 1, 2, and 4 week studies.
The results for the 12 week subchronic toxicity study (FIG. 18) reveal many interesting points about SELP and its ability to improve the Ad.HSVtk/GCV toxicity profile. […]

[3] = Small angle neutron scattering (SANS) of SELP hydrogels; type: physicochemical; details: 12 wt %
Excerpt: To gain further insight into the hydrogel pore structure, network properties were examined as a function of polymer sequence by small angle neutron scattering (SANS) techniques (FIG. 9). SANS allows the examination of microstructures in the range 1-100 nm through the analysis of elastic neutron scattering. SANS analysis was used to examine the correlation between the observed macroscopic properties of SELPs (12% wt), such as equilibrium swelling and mechanical modulus, with the underlying network structure. […] SELP hydrogels conformed closely with a modified gel model of the general form I(Q)=AQ^b+(BQ^2ε^2)^2+C, which uses a power-law fit for the high q scattering combined with the Debye-Bueche model at low to intermediate Q (above Q=0.02 Å^−1). The combined Debye-Bueche/power law model provided a nearly complete fit over the full q-range of collected data. […] The calculated correlation length (Table 3) depicts a trend in the observation that are in the order SELP-415K>SELP-815K>SELP-47K. […] The silk blocks of SELP-415K are separated by elastin blocks twice the length as −47K, and as these cross-linking blocks move further apart, the elastin-like nature of the SELP becomes more pronounced and the storage modulus decreases. SELP-815K presents an interesting case where the silk blocks are doubled in length over SELP-47K while also having a long elastin block as in SELP415K.

B1: SELP815K: silk-elastin-like protein polymer, longer silk units, fifteen elastin units, lysine elastin unit; monomer repeated 6 times (SEQ ID NO. 21) (protein)
chain: MDPVVLQRRDWENPGVTQLNRLAAHPPFASDPMGAGSGAGAGSGAGAGSGVGVPGVGVPGVGVPGVGVPGKGVPGVGVPGVGVPGVGVPGVGVPGVGVPGVGVPGVGVPGVGVPGVGVPGVGVPGVGVPGAGAGSGAGAGSGAGAGSGAGAGSGAGAGSGAGAGAGSGAGAGSGAGAGSGVGVPGVGVPGVGVPGVGVPGKGVPGVGVPGVGVPGVGVPGVGVPGVGVPGVGVPGVGVPGVGVPGVGVPGVGVPGVGVPGAGAGSGAGAGSGAGAGSGAGAGSGAGAGSGAGAGAGSGAGAGSGAGAGSGVGVPGVGVPGVGVPGVGVPGKGVPGVGVPGVGVPGVGVPGVGVPGVGVPGVGVPGVGVPGVGVPGVGVPGVGVPGVGVPGAGAGSGAGAGSGAGAGSGAGAGSGAGAGSGAGAGAGSGAGAGSGAGAGSGVGVPGVGVPGVGVPGVGVPGKGVPGVGVPGVGVPGVGVPGVGVPGVGVPGVGVPGVGVPGVGVPGVGVPGVGVPGVGVPGAGAGSGAGAGSGAGAGSGAGAGSGAGAGSGAGAGAGSGAGAGSGAGAGSGVGVPGVGVPGVGVPGVGVPGKGVPGVGVPGVGVPGVGVPGVGVPGVGVPGVGVPGVGVPGVGVPGVGVPGVGVPGVGVPGAGAGSGAGAGSGAGAGSGAGAGSGAGAGSGAGAGAGSGAGAGSGAGAGSGVGVPGVGVPGVGVPGVGVPGKGVPGVGVPGVGVPGVGVPGVGVPGVGVPGVGVPGVGVPGVGVPGVGVPGVGVPGVGVPGAGAGSGAGAGSGAGAGSGAGAGSGAGAGSGAGAMDPGRYQDLRSHHHHHH
modifications: monomer repeated 6 times; Hybrid of Homo sapein and Bombyx mori
digestion by MMP-2 [1]: is not
toxicity conclusion of the statistical comparison ([2]; 12 week study, comparison named in the table line): SELP itself is not toxic in
p (ANOVA and Bonferroni post-test) Vs Control ([2]; 12 week subchronic toxicity study): p > .05
Debye-Bueche mid-Q slope [3]: ~−3
Power-law low Q slope [3]: 3.26
